Changes are numbered by the printed parent chain.

Sequences and labels used below:
B1: PRT-550 (protein)
chain: MANQEIRYSEETPKTITSIWTKGVTPPTDFIKNEDVLHAPYIANQGWYDITKTFNGKDDLLCGAATAGNMLHWWFDQNKEEIENYLKKHPEKQKINFNGEQMFDVKEAIDTKDSQTDSKLFEYFKDKAFPYLSTKHLGVFPDHVIDMFINGYRLSLTNHGPTPVKRGTKDPRGGIFDAVFTRGDQSKLLTARHDFKEKTLNEISDLIKQELTEGKALGLSHTYANVRINHVINLWGADFNSEGNLEAIYVTDSDSNASIGMKKYYVGVNAAGKVAISAKEIEGDNIGAQVLGLFTLSTGQDIWNQTNLEHHHHHH
B2: PRT-668 (protein)
chain: MQITSVWTKGVTPLTPEQFRYNNYDVFHAPYLAGQGWYDITKAFDGKDNLLCGAATAGNMLHWWFDQNKTEIEAYLSKYPEKQKIIFNNQELFDLRKAINTKDSQTNSELFNYFRDKAFPNLSARQLGVMPDLVLDMFINGYYLNVFKTQSTDVNRPYQDKDKRGGIFDAVFNRGDQTKLLTARHDLKNKGLNDISTLIKQELSSGRALALSHTTANVSISHVINLWGADFNAEGNLEAIYVTDSDDDSNIGMKKYKVGINASGHVAISAKKIEGENIGAQVLGLFTLSSGKDIWQKLSLEHHHHHH
B3: PRT-572 (protein)
chain: MANQEIRYSEATPSHITSVWTKGVTPPTQFIQNEDVLHAPYIANQGWYDITKTFNGKDDLLCGAATAGNMLHWWFDQNKEQIENYLKKHPEKQKINFNGEQMFDVKEAIDTKDSQTDSALFSYFKDKAFPYLSTKHLGVFPDHVIDMFINGYRLSLTNHGPTPVKEQTKDPRGGIFDAVFTRGDQSKLLTSRHDFKEKTLNEISQLIKQELTEGKALGLSHTYANVRINHVINLWGADFNAEGNLEAIYVTDSDSNASIGMKKYYVGVNSAGKVAISAKEIEGDNIGAQVLGLFTLSTGQDIWQQTNLEHHHHHH
B4: PRT-4 (protein)
chain: MANQEIRYSEVTPYHVTSVWTKGVTPPANFTQGEDVFHAPYVANQGWYDITKTFNGKDDLLCGAATAGNMLHWWFDQNKEQIERYLKEHPEKQKINFNGEQMFDVKEAIDTKDSQLDSKLFEYFKEKAFPYLSTKHLGVFPDHVIDMFINGYRLSLTNHGPTPVKEGSKDPRGGIFDAVFTRGDQSKLLTSRHDFKEKNLKEISDLIKKELTEGKALALSHTYANVRINHVINLWGADFDSNGNLKAIYVTDSDSNASIGMKKYFVGVNSAGKVAISAKEIKEDNIGAQVLGLFTLSTGQDIWNQTN
B5: PRT-65 (protein)
chain: B4 chain with E80D, E83K, K87E, D113N, S114H, H143L, A218G, I302S
B6: PRT-63 (protein)
chain: B4 chain with E83K, D113N, S114H, I145L, A178D, A218G, I302S
B7: PRT-61 (protein)
chain: B4 chain with T51N, Q81Y, E83K, K87E, D113N, S114H, I145L, A218G, I259V, I302S
B8: PRT-62 (protein)
chain: B4 chain with E80D, E83K, K87E, D113N, S114H, T181G, A218G, I302S
B9: PRT-64 (protein)
chain: B4 chain with E80D, E83D, K87E, D113N, S114H, A218G, I302S
B10: PRT-678 (protein)
chain: MQITTVWTKGVTPLTPEQFRYNNEEVIHAPYKAGQGWYDITKVFDGKDNLLCGAATAGNMLHWWFDQNKTEIEAYLSKHPEKQKIIFNNQELFDLKRAIDDKDSQTNSQLFNYFRDKAFPNLSARQLGVMPDLVLDMFINGYYLNVFKTQSTDVNRPYQDPDKRGGIFDDVFGKGDQTTLLTARHDLKNLGLEDISTIIKQELRNGRALALSHTYANVSISHVINLWGADFNAEGNLSAIYVTDSDANNSIGMKKYKVGYNAHGRVAISAKKIEGENIGAQVLGLFTLSSGKDIWQKLSLEHHHHHH
B11: PRT-655 (protein)
chain: MQITSVWTKGVTPLTPEQFRYNNEDVIHAPYLAHQGWYDITKAFDGKDNLLCGAATAGNMLHWWFDQNKTEIEAYLSKHPEKQKIIFNNQELFDLKAAIDTKDSQTNSQLFNYFRDKAFPNLSARQLGVMPDLVLDMFINGYYLNVFKTQSTDVNRPYQDKDKRGGIFDAVFTRGDQTTLLTARHDLKNKGLNDISTIIKQELTEGRALALSHKTGNGGSSHVINLWGADFNAEGNLEAIYVTDSDANASIGMKKYFVGINAHGHVAISAKKIEGEDVGAQVLGLFTLSSGKDIWQKLSLEHHHHHH
B12: PRT-627 (protein)
chain: MQITSVWTKGVTPLTPEQFRYNNEDVIHAPYLAHQGWYDITKAFDGKDNLLCGAATAGNMLHWWFDQNKEEIEAYLKKYGETQKIIFNNQELFDLKAAIDTKDSQTNSQLFNYFRDKAFPNLSARQLGVMPDLVLDMFINGYYLNVFKTQSTDVNRPYQDKDKRGGIFDAVFTRGDQTTLLTARHDLKNKGLNDISTIIKQELTEGRALALSHTYANVSISHVINLWGADFNAEGNLEAIYVTDSDANASIGMKKYFVGINAHGHVAISAKKIEGENIGAQVLGLFTLSSGKDIWQKLSLEHHHHHH
B13: PRT-639 (protein)
chain: B12 chain with A43T, D45N, N49D, E70T, K77S, Y79H, G80P, T82K, N248D
B14: PRT-612 (protein)
chain: B12 chain with E70T, K77S, Y79H, G80P, T82K, K96R, D100N, T101S
B15: PRT-606 (protein)
chain: B12 chain with E70T, K77S, G80P, E81D, T82K, D293E
B16: PRT-622 (protein)
chain: MQITSVWTKGVTPLTPEQFRYNNEDVIHAPYLAHQGWYDITKAFDGKDNLLCGAATAGNMLHWWFDQNKTEIEAYLSKHPEKQKIIFNNQELFDLKAAIDTKDSQTNSQLFNYFRDKAFPNLSARQLGVMPDLVLDMFINGYYLNVFKTQSTDVNRPYQDKDKRGGIFDAVFTRGDQTTLLTARHDLKNKTLKEISDIIKQELQSGRALALSHTYANVSISHVINLWGADFNSEGNLIAIYVTDSDANASIGMKKYFVGINAHGHVAISAKKIEGENIGAQVLGLFTLSSGKDIWQKLSLEHHHHHH

This data set addresses pooled human IgG.
B1 gave an Enzyme Activity Endpoint Assay (purified): Fab′2 of 891 ng/µL, an Enzyme Activity Endpoint Assay (purified): Fc of 389 ng/µL, an Enzyme Activity Endpoint Assay (purified): IgG of 0 ng/µL and an Enzyme Activity Endpoint Assay (purified): scIgG of 0 ng/µL.
B2 showed an Enzyme Activity Endpoint Assay (purified): Fab′2 of 563 ng/µL, an Enzyme Activity Endpoint Assay (purified): Fc of 0 ng/µL, an Enzyme Activity Endpoint Assay (purified): IgG of 1070 ng/µL and an Enzyme Activity Endpoint Assay (purified): scIgG of 14 ng/µL.
In the same order, the values of B3 are 936 ng/µL, 478 ng/µL, 0 ng/µL and 0 ng/µL.
Protein B4 showed an Enzyme Activity Endpoint Assay: Fab′2 of 21 ng/µL, an Enzyme Activity Endpoint Assay: Fc of 97 ng/µL, an Enzyme Activity Endpoint Assay: IgG of 23 ng/µL and an Enzyme Activity Endpoint Assay: scIgG of 42 ng/µL.
In turn, B5 registered an Enzyme Activity Endpoint Assay (purified): Fab′2 of 35 ng/µL, an Enzyme Activity Endpoint Assay (purified): Fc of 100 ng/µL, an Enzyme Activity Endpoint Assay (purified): IgG of 26 ng/µL and an Enzyme Activity Endpoint Assay (purified): scIgG of 34 ng/µL.
The protein B6 displayed an Enzyme Activity Endpoint Assay (purified): Fab′2 of 44 ng/µL, an Enzyme Activity Endpoint Assay (purified): Fc of 120 ng/µL, an Enzyme Activity Endpoint Assay (purified): IgG of 13 ng/µL and an Enzyme Activity Endpoint Assay (purified): scIgG of 19 ng/µL.
In the same order, the values of B7 are 0 ng/µL, 55 ng/µL, 52 ng/µL and 50 ng/µL.
In the case of B8, the Enzyme Activity Endpoint Assay (purified): Fab′2 is 15 ng/µL, the Enzyme Activity Endpoint Assay (purified): Fc came to 94 ng/µL, the Enzyme Activity Endpoint Assay (purified): IgG was 8 ng/µL and the Enzyme Activity Endpoint Assay (purified): scIgG worked out at 56 ng/µL.
In the same order, the values of B9 are 50 ng/µL, 123 ng/µL, 16 ng/µL and 17 ng/µL.
B10 came in with an Enzyme Activity Endpoint Assay (purified): Fab′2 of 56 ng/µL, an Enzyme Activity Endpoint Assay (purified): Fc of 0 ng/µL, an Enzyme Activity Endpoint Assay (purified): IgG of 39 ng/µL and an Enzyme Activity Endpoint Assay (purified): scIgG of 0 ng/µL.
As to B11, the Enzyme Activity Endpoint Assay (purified): Fab′2 came out at 471 ng/µL, the Enzyme Activity Endpoint Assay (purified): Fc was 0 ng/µL, the Enzyme Activity Endpoint Assay (purified): IgG was determined as 1380 ng/µL and the Enzyme Activity Endpoint Assay (purified): scIgG was 15 ng/µL.
In the same order, the values of B12 are 767 ng/µL, 415 ng/µL, 124 ng/µL and 187 ng/µL.
In the same order, the values of B13 are 788 ng/µL, 450 ng/µL, 0 ng/µL and 0 ng/µL.
In the same order, the values of B14 are 986 ng/µL, 533 ng/µL, 0 ng/µL and 0 ng/µL.
B15 gave an Enzyme Activity Endpoint Assay (purified): Fab′2 of 737 ng/µL, an Enzyme Activity Endpoint Assay (purified): Fc of 406 ng/µL, an Enzyme Activity Endpoint Assay (purified): IgG of 0 ng/µL and an Enzyme Activity Endpoint Assay (purified): scIgG of 0 ng/µL.
In turn, B16 showed an Enzyme Activity Endpoint Assay (purified): Fab′2 of 823 ng/µL, an Enzyme Activity Endpoint Assay (purified): Fc of 423 ng/µL, an Enzyme Activity Endpoint Assay (purified): IgG of 0 ng/µL and an Enzyme Activity Endpoint Assay (purified): scIgG of 0 ng/µL.

These data come from patent US20250027068.
